Reference: US20140179900A1

Experiments:
[1] = molecular target: monoclonal antibody 12G6H5 (“Frida”); assay: inhibition ELISA FIG. 18c, high peptide, 2.5 ng Frida, coat p4073
[2] = molecular target: monoclonal antibody 12G6H5 (“Frida”); assay: inhibition ELISA FIG. 18c, low peptide, 2.5 ng Frida, coat p4073
[3] = molecular target: monoclonal antibody 12G6H5 (“Frida”); assay: inhibition ELISA FIG. 10b, 20 µg peptide, 2.5 ng Frida, coat p4073
[4] = molecular target: monoclonal antibody 12G6H5 (“Frida”); assay: inhibition ELISA FIG. 18a, low peptide, 2.5 ng Frida, coat p4073
[5] = molecular target: monoclonal antibody 12G6H5 (“Frida”); assay: inhibition ELISA FIG. 10b, 2 µg peptide, 2.5 ng Frida, coat p4073
[6] = molecular target: monoclonal antibody 12G6H5 (“Frida”); assay: inhibition ELISA FIG. 18a, high peptide, 2.5 ng Frida, coat p4073
[7] = molecular target: monoclonal antibody 12G6H5 (“Frida”); assay: inhibition ELISA FIG. 10a, 20 µg peptide, 2.5 ng Frida, coat p4073
[8] = molecular target: monoclonal antibody 12G6H5 (“Frida”); assay: inhibition ELISA FIG. 10a, 2 µg peptide, 2.5 ng Frida, coat p4073

Row | Binder | ELISA signal with competitor [1] | ELISA signal with competitor [2] | ELISA signal with competitor [4] | ELISA signal with competitor [6] | further results
1 | CFGFPSHIIIDWLQSLS [p4432 C-…] | 0.096 | 0.635 |  |  | 
2 | CFGFPSHLIIEWLQSLS [p4433 C-…] | 0.672 | 1.11 |  |  | 
3 | CAAFPAHLLADAAQALA [p4434 C-…] | 1.46 | 1.74 |  |  | 
4 | CAAFPAHAAADFLQALA [p4435 C-…] | 1.97 | 1.28 |  |  | 
5 | CAAFAAHLLADFLQAAA [p4436 C-…] | 1.69 | 1.63 |  |  | 
6 | CAAAPAHLLVDAAQAAA [p4437 C-…] | 1.67 | 1.84 |  |  | 
7 | CFGFPEHLLVDFLQSLS [p4073 C-…, original CETP epitope] | 0.088 | 0.554 | 0.537 | 0.094 | ELISA signal with competitor [3]: 0.15; ELISA signal with competitor [5]: 0.64; ELISA signal with competitor [7]: 0.1; ELISA signal with competitor [8]: 0.44
8 | CFGFPAHVFIDWLQSLS [p4361 C-…] |  |  |  |  | ELISA signal with competitor [7]: 0.16; ELISA signal with competitor [8]: 0.82
9 | CFGFPAHVYIDWLQSLS [p4362 C-…] |  |  |  |  | ELISA signal with competitor [7]: 0.15; ELISA signal with competitor [8]: 0.75
10 | CFGFPSHLIIDWLQSLS [p4325 C-…] |  |  |  |  | ELISA signal with competitor [3]: 0.1; ELISA signal with competitor [5]: 0.42
11 | FGFPEHLLVDFLQSLSC [p1208 …-C] | 0.101 | 0.942 | 0.712 | 0.093 | 
12 | CFGFPAHVFIDWLQSLN [p4474 C-…] |  |  | 1.45 | 0.179 | 
13 | CFGFPAHFSIDWLQSLS [p4475 C-…] |  |  | 2.21 | 1.43 | 
14 | CFGFPAHVSFDWLQSLS [p4476 C-…] |  |  | 2 | 1.42 | 
15 | CFGFPEHVFIDWLQSLS [p4477 C-…] |  |  | 0.808 | 0.116 | 
16 | CFKPAHVFIDWLQSLS [p4478 C-…] |  |  | 2.23 | 1.21 | 
17 | CGFKPAHVFIDWLQSLS [p4479 C-…] |  |  | 2.17 | 1.59 | 
18 | CDFGFPAHVFIDWLQSLS [p4480 C-…] |  |  | 0.521 | 0.103 | 
19 | CFGFPQHLFTDWLQSLS [p4481 C-…] |  |  | 0.551 | 0.156 | 
